Test results from the DeepSol protein solubility set.

assay: soluble on expression in E. coli; label from the status in PepcDB or PDB records

Row | Sequence | soluble on expression in E. coli
1 | LAIFLIDLPPSDMERRLGDALTVYVDAMRYPRGTETLRAPMWLEHIRRRGWQAVAAVEVTAAEQAEAADTTALPSAAELSNAPMLGVAYGYPGAPGQWWQQQVVLGLQRSGFPRLAIARLMTSYFELTELHILPRAQGRGLGEALARRLLAGRDEDNVLLSTPETNGEDNRAWRLYRRLGFTDIIRGYHFAGDPRAFAILGRTLPL | not soluble
2 | MGSDKIHHHHHHMRIGFLSHAGASIYHFRMPIIKALKDRKDEVFVIVPQDEYTQKLRDLGLKVIVYEFSRASLNPFVVLKNFFYLAKVLKNLNLDFIQSAAHKSNTFGILAAKWAKIPYRFALVEGLGSFYIDQGFKANLVRFVINSLYKLSFKFAHQFIFVNESNAEFMRNLGLKENKICVIKSVGINLKKFFPIYVESEKKELFWKNLNIDKKPIVLMIARALWHKGVKEFYESATMLKDKANFVLVGGRDENPSCASLEFLNSGAVHYLGARSDIVELLQNCDIFVLPSYKEGFPVSVLEAKACGKAIVVSDCEGCVEAISNAYDGLWAKTKNAKDLSEKISLLLEDEKLRLNLAKNAAQDALQYDENIIAQRYLKLYDRVIKNV | not soluble
3 | MYGLVNKAIQDMISKHHGEDTWEAIKQKAGLEDIDFFVGMEAYSDDVTYHLVGAASEVLGKPAEELLIAFGEYWVTYTSEEGYGELLASAGDSLPEFMENLDNLHARVGLSFPQLRPPAFECQHTSSKSMELHYQSTRCGLAPMVLGLLHGLGKRFQTKVEVTQTAFRETGEDHDIFSIKYEDSNLYDD | soluble
4 | MGALGYHPYFESNMIHSMTAFAADEHLTPWGLLACELRSVNHRFLDIVIRLPEELRALEPQLRERVAARVSRGKLDLTVRLSPQEIHTGKLVVNELLLSQLSTLALRLSAQFPALRVTFAELLQIPGVLKGEQIDMATLQGHAVALLDKVLNNFIATREREGLKMQAMIAQRASAIERIVGEVRILIPTIREGQHNKLSARMNHLSYPVDPGRIEQELVLWLQKLDVDEELDRLSSHISELHRILQQREPVGRRLDFLMQEFNREANTLGSKSVDSRTSNATIELKVLIDQIREQVQNIE | soluble
5 | MHDASHNSLFKTKWMNDYLVDWLCARPIWNDVHKYRTHHTRHHAKTSTPEDPDLTLVAGFPTTKTSLTRKFLRDLVGITGFKFTVGRILMDAEVLKWTVANDLTWLPRENRQWYDYPKVFLKNSSKAIIANASIFGILWAFGRPELYLLWPLAYLTPFPLFIRIRSMAEHAGTQISNNALTNTRTTKAGWLARAFVAPIRVNYHMEHHLMAAVPFFKLPKMHQMLRERGHVPEPPTYVQVIHMLSSHQTNQHPLNSVEQGELEHHHHHH | soluble
6 | MSLRYFVFATFKVHKDATNSYFSNGDVVVVNRNRTPKYKDFIVYKVGKIFYISRVIGEPNQKVRVMDDILYLNDVFKDEPYIEKMKNAYSEKKDGQMPFTSDFSVETLTRNKESRVPKGSYLVLNDNRQNKNDSRKFGLIKEKDIRGVITFKVYPLSEFGFTASEGHHHHHH | soluble
7 | MAHHHHHHMIRINENSKMSSNLSNENEVTYEKNNNIKNKLEEKYKNFLKLKNMNSHMGASQNMNVNNNYTMNELEEFEKINNNYNNNNNNINNNINNYYDYMNIKVSQSVQHNKRLQDFYNNKNSFQHYIKKLKTCRFDADDIRNLLEKRLAYERDNTLIKNIQEEENKKGIGINGNFGSESNSSSSNYDNNYLLYRKINRLNKTNTNKSKNRSRKRKRINSKIDKKYIIKCRACKFINPNGFKIEDYYTCQNCGYNDFSVIRSTSPNNAD | not soluble
8 | MQYHEIGKTGMKVSSLSFGASSLGGVFHDLKEKEGIQAVFTAIEAGMNFIDVSPYYGHYKAETVLGKALKDIPRDRYYLSTKVGRYGKDGVNTWDYSAKRATESVYESMERLNIDFIDLINVHDIEFADLNQVVNETLPALVELREKGVVGHVGITDLQLENLKWVIDRSPSGTIESVLSFCHYCLCDDKLADFLDYFESKEIGVINASPLSMGLLSERGVPVWHPAPKPLVDACRKAMEHCKAKNYPIEKLAMQFSVSNPKIATTLFSTTNPENVKKNIGFIEEPVDWELVREVREIIGEQQRVSWANS | not soluble
9 | MNMVSQGVKGGEYRSPQKNYTQLTFKNVDAIGHPQGAISQMLNSTGYYCQSQTTPFVPYFLSSLDFFAWRQAIPEMFYPEALVPGMREIRGNGETWGNIFPRSGAVTQVDDYKASAVSVHRVADFLTRMAQPHIYLPTAKQEQGQNGHWYPDPVQEGEVGNHKWQQLHPQLSQSCSIFPDTPPAQLSENGSYAWALWRPYKCCKRRGQTFLYSVDWSNLEHHHHHH | not soluble
10 | MIEMKYILARATDEEIQKRGECGGAVTAIFKYMLDREIVDGVLTLERGDDIYDGIPVLLEDSDEIVSTCGSLHCAPTMFGDLISRYLNDMRLAVAVKPCDAMAIKELEKRHQIDPQRVYMIGLNCGGTLSPVSAREMIETFYEIDPDDVVREEIDKGKFIVELKDGSHKEISIDYLEEEGFGRRENCQRCELMVPRNADIACGNWGAEEGWTFIEVNTDRGEEIIEGARREGYLEVKEPPMKMIEIREKIENAMIKMARKFQDKYLEDEYPSLDDWDEYWKRCINCFACRDLCPICFCRECELEKDYLLESDEKAPDPLTFQGVRLSHMGFSCINCGQCEDVCPMDIPLARIYHRIQRKYRDRTGFTAGVSEELPPMYSGEKDLEHHHHHH | soluble
11 | MGSDKIHHHHHHMTDTAPAANIATLSELLKLSGSQYRLYDIGRLVSELPKEQFEKVELNQLPYPTPTQGCACIAIAFWQKQSSQPYLWLLKLPLDERGLLNQGARNHFIAIIVEALGADLTQETSKKQEELLSSNPYLFTPAQYKLASLNSKIKVDLKQQPSAYFSPFREYLSHGSDWGNWQGVGVQGITDFIARIKHDNHSELLLNALPHLPDEVLSPVCSALENEQYPVVLIDALVSALENALIIPDNSVKTMQLLRSLAANSDHTHVRKVVGQLLSNQEVSSELLITLSGRCWQALADEKMLMCYFEHLLSNNNLPLFSSIFKDLVTIPLIRPVAFQCIRSEDRSPALAQAIGQLLSQT | not soluble
12 | MGSDKIHHHHHHMPNRDSEKLITDGYTTTLLGDELMVCENMKHIRVTSVPSYTEVGMIILCLRGTAKICIFDNIHILAKNELAVILPGQLVSITELSPDFLCNIVVLSRALFDDTLSGFSRFSPLFFVYMRSHYWYELTGEEIERFKLFYGSLSQRAKDPTHFFRRESVLLLLRIFYLDIYNEYYSKSHLMKGGSDMGKSKLAHDFFCLIMQHYREHKDVAFYADKLCITSKYLSMVIKEASGKTAKDWIVEYAILEIKAMLKNSTMNIQEISIKTNFANQSSLGRFFRKHTGMTLTEYRMHR | not soluble
13 | MAHHHHHHMGSSSPSSLLPPALMPCHVWEGREEGISVETARGRREVEINRKKGHMASPKEMYEKECRALGVPPNSGLLRMLPESTVNLSGLSVMHLGHNFLGDRGVVPFVHIIAHASSLHTLNLRENGIGNEGVRVLCRGLRRLPALKVLELSGNPFTFLAARQLVYLCEDSPVLSVIGVEGTLMTEKLKTSIIHRIREAVKRREARKQLSQQPSADRDDGQKDMAEGVAEAEGKVVERAAPIAAEEATTLRSRNVGGPCLRKSVLSLVSQDSMSTAMSSKFKKNEPDDQAGPRGANEFASPCSPLPPPPPDDAHQSPLWFDASEDEEQKEEKKEISVATAENDEKMMIDTAGSISFLVDVEELRANSVERELRAQEEMLPWQVSRADDPLRSLHSTHTRIASHRTTEKRSESGTAISFPSSFTLELRTAEAEGKLAECTKSTKGDDFLDLLFGSEVD | not soluble
14 | GAMSSPAGSPTEQAPPAKGSVKVLRTVATGLNSPWGLAPLPGGDLLVSSRDEATITRVDAKTGRKTELGEVPGVSPSGEGGLLGIALSPDYASDHMVYAYFTSASDNRIVRMLYDEKKPSGEQLGAPDTVFRGIPKGVIHNGGRIAFGPDKMLYAGTGESGDTGLSQDRKSLGGKILRMTPDGEPAPGNPFPGSPVYSYGHRNVQGLAWDDKQRLFASEFGQDTWDELNAIKPGDNYGWPEAEGKGGGSGFHDPVAQWSTDEASPSGIAYAEGSVWMAGLRGERLWRIPLKGTAAAADPQAFLEGEYGRLRTVAPAGGDKLWLVTSNTDGRGDAKGGDDRILELEVE | soluble
15 | MKKILVGIPNYNNAAYIVDTIESVLKQSYSGVDVVVFDNASTDDSVEIIENTFLNNPNVLLKKSASNVGPTMNHNRCLEYAIDNEYDYLKVLSSDDVLLPNIIQEQFELLESEPRGAFATCNMIVTDDKLTKIKDHDFLGSNTDGNAVIKKCASHSANYIGGPSNGLLRVSCIGATRFSPEYKWLSDLKFYCDLLANRPFINTGTNGFFYRRHDNTDSSHVSKIKNLQRKESIRFSGEYGGNFLTKIKIYLRDIKSRLLLEHHHHHH | not soluble
16 | MGYVEIIEQPKQRGMRFRYKCEGRSAGSIPGERSTDTTKTHPTIKINGYTGPGTVRISLVTKDPPHRPHPHELVGKDCRDGFYEAELCPDRCIHSFQNLGIQCVKKRDLEQAISQRIQTNNNPFQVPIEEQRGDYDLNAVRLCFQVTVRDPSGRPLRLPPVLSHPIFDNRAPNTAELKICRVNRNSGSCLGGDEIFLLCDKVQKEDIEVYFTGPGWEARGSFSQADVHRQVAIVFRTPPYADPSLQAPVRVSMQLRRPSDRELSEPMEFQYLPDGSLSSGSSLSSPSAGAAPRVLFGEWLLGEISSGCYEGLQWLDEARTCFRVPWKHFARKDLSEADARIFKAWAVARGRWPPSSRGGGPPPEAETAERAGWKTNFRCALRSTRRFVMLRDNSGDPADQHKVYALSGSLSSDSSLSSPSALSPKPRILPWLVSQLDLGQLEGVAWVNKSRTRFRIPWKHGLRQDAQQEDFGIFQAWAEATGAYVPGRDKPDLPTWKRNFRSALNRKEGLRLAEDRSKDPHDPHKIYEFVNGLEHHHHHH | soluble
17 | MNYVKIGVGGPVGSGKTALIEKLTRILADSYSIGVVTNDIYTKEDAEFLIKNSVLPKERIIGVETGGCPHTAIREDASMNLEAVEELVQRFPDIQIVFIESGGDNLSATFSPELADATIYVIDVAEGDKIPRKGGPGITRSDLLVINKIDLAPYVGASLEVMERDSKKMRGEKPFIFTNLNTNEGVDKIIDWIKKSVLLEGV | soluble
18 | MAHHHHHHMSSSSSGQYSGSGGNRGSGFVHLNTPASIQYTAGKTLSLSALRQSKSRVECAVLPESMSVWRDAFQRYSKEEGYSSFAADIEDERTGNGPILPPLVPQRAGPVRRRAGRALVRTDAFFCASSSPAPLGTSASTAHTGADRPPLTDGAAAISSTATAASASSSSRLSDKGTTATSADSVADGSTGPTAKQQQEGIPIVSHHKLLGRQQFVYPDYDGVLSAGVVPQIVVTAEEEAEEAAAKAFYISPLTMTEEELAAFEELQGLWKSRARSHSFLGAQHRKAAKGAVDPSSSADVLEAGGAGLPKVRRCEGVTGGASLSARRGNEIDVPAYAEAETAVEEESKLDKELSEALRMADDLLRFA | not soluble
19 | MASSNLIKQLQERGLVAQVTDEEALAERLAQGPIALYCGFDPTADSLHLGHLVPLLCLKRFQQAGHKPVALVGGATGLIGDPSFKAAERKLNTEETVQEWVDKIRKQVAPFLDFDCGENSAIAANNYDWFGNMNVLTFLRDIGKHFSVNQMINKEAVKQRLNREDQGISFTEFSYNLLQGYDFACLNKQYGVVLQIGGSDQWGNITSGIDLTRRLHQNQVFGLTVPLITKADGTKFGKTEGGAVWLDPKKTSPYKFYQFWINTADADVYRFLKFFTFMSIEEINALEEEDKNSGKAPRAQYVLAEQVTRLVHGEEGLQAAKRITECLFSGSLSALSEADFEQLAQDGVPMVEMEKGADLMQALVDSELQPSRGQARKTIASNAITINGEKQSDPEYFFKEEDRLFGRFTLLRRGKKNYCLICWK | soluble
